From article doi:10.64898/2025.12.12.693941 (bioRxiv, 2025)
Substitutions are numbered along the chain they refer to. Numbers in names are those of the source.

B1: M. tuberculosis Ku R262A (natural protein)
chain: MRAIWTGSIAFGLVNVPVKVYSATADHDIRFHQVHAKDNGRIRYKRVCEACGEVVDYRDLARAYESGDGQMVAITDDDIASLPEERSREIEVLEFVPAADVDPMMFDRSYFLEPDSKSSKSYVLLAKTLAETDRMAIVHFTLRNKTRLAALRVKDFGKREVMMVHTLLWPDEIRDPDFPVLDQKVEIKPAELKMAGQVVDSMADDFNPDRYHDTYQEQLQELIDTKLEGGQAFTAEDQPRLLDEPEDVSDLLAKLEASVKAASKANSNVPTPP
B2: M. tuberculosis Ku V248A (natural protein)
chain: B1 chain with V248A, A262R
B3: M. tuberculosis Ku K260A (natural protein)
chain: B1 chain with K260A, A262R
B4: M. tuberculosis Ku, wild type, His-tagged and RED-tris-NTA labelled (MST ligand) (natural protein)
chain: B1 chain with A262R
B5: M. tuberculosis Ku S263A (natural protein)
chain: B1 chain with A262R, S263A
B6: M. tuberculosis Ku N266A (natural protein)
chain: B1 chain with A262R, N266A
B7: M. tuberculosis Ku, wild type, His-tag removed by TEV (MST analyte) (natural protein)
chain: B1 chain with A262R
B8: M. tuberculosis Ku S258A (natural protein)
chain: B1 chain with S258A, A262R
B9: M. tuberculosis Ku E246A (natural protein)
chain: B1 chain with E246A, A262R
B10: M. tuberculosis Ku E256A (natural protein)
chain: B1 chain with E256A, A262R

Tests used:
[1] = molecular target: the molecule itself; assay: SEC-MALS
[2] = molecular target: M. tuberculosis LigD, wild type, His-tag removed by TEV (MST analyte) (M. tuberculosis, UniProt P9WNV3 1-759); assay: MST
[3] = molecular target: M. tuberculosis LigD D162R (M. tuberculosis, UniProt P9WNV3 1-759, D162R); assay: MST
[4] = molecular target: M. tuberculosis LigD V194D (M. tuberculosis, UniProt P9WNV3 1-759, V194D); assay: MST
[5] = molecular target: M. tuberculosis LigD R198E (M. tuberculosis, UniProt P9WNV3 1-759, R198E); assay: MST
[6] = molecular target: M. tuberculosis LigD K579E (M. tuberculosis, UniProt P9WNV3 1-759, K579E); assay: MST
[7] = molecular target: M. tuberculosis LigD L580E (M. tuberculosis, UniProt P9WNV3 1-759, L580E); assay: MST

Binder | stoichiometry N [1] | binding result [2] | also measured
B1 | 2 | binds | 
B2 | 2 | binds | 
B3 | 2 | binds | 
B4 |  |  | Kd [2]: 850 nM
B5 | 2 | binds | 
B6 | 2 |  | 
B7 |  |  | binding result [3]: binds; binding result [4]: binds; binding result [5]: binds; Kd [6]: 510 nM; Kd [7]: 1270 nM
B8 | 2 | binds | 
B9 | 2 | binds | 
B10 | 2 | binds | 
